From US7943146B2, “Immunizing compositions comprising HIV-1 proviral constructs with an inactive p6 gag TSG101 UEV binding domain capable of producing budding-defective viral particles that remain tethered to the cell surface” (priority 2001, dated 2011)
No end group written: not given here.

What was measured:
[1] = target: T1, interaction between GAGp6 and Tsg101 (Homo sapiens, UniProt Q99816); assay: In vitro binding assay: GST-p6 on plate, myc-tagged Tsg101 (residues 1-207), competition by peptide; settings: FIG. 3, different peptide concentrations, fluorescence signal
T1 construct: Drosophila S2 cell lysate myc-tagged Tsg101 (residues 1-207); made in house; host or cells: Drosophila S2 cells (Tsg101, used as cell lysate)
T1 sequence (Q99816 1-207): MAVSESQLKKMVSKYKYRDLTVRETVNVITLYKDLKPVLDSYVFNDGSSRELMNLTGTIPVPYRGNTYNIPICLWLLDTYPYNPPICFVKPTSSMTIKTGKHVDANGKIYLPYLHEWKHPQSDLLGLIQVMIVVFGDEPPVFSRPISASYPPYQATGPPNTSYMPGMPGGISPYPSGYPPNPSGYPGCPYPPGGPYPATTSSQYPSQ
Method: A fusion protein with a GST tag fused to the HIV-1 GAGp6 domain was recombinantly expressed and purified by chromatography. In addition, a GAGp6 peptide containing the first 14 amino acid residues (“p6(1-14)”) was synthesized chemically by standard peptide synthesis methods. The peptide was purified by conventional protein purification techniques, e.g., by chromatography.
Nunc/Nalgene Maxisorp plates were incubated overnight at 4° C. or for 1-2 hrs at room temperature in 100 μl of a protein coupling solution containing purified GST-p6 and 50 mM Carbonate, pH=9.6. This allowed the attachment of the GST-p6 fusion protein to the plates. Liquids in the plates were then emptied and wells filled with 400 μl/well of a blocking buffer (SuperBlock; Pierce-Endogen, Rockford, Ill.). […]
Plates were then washed 4×100 μl with 1×PBST solution (Invitrogen; Carlsbad, Calif.). […] Plates were then read on a Packard Fusion instrument at an excitation wavelength of 325 nm and an emission wavelength of 420 nm. […]
Different concentrations of the p6(1-14) peptide were tested, and the relative intensities of the fluorescence signals obtained at different concentrations were plotted against the peptide concentrations. […]

[2] = test system: HIV; assay: microbe, parasite or virus in culture; assay type: cell-based, HIV-1
Method: Fresh human blood was obtained commercially from Interstate Blood Bank, Inc. (Memphis, Tenn.). The lymphotropic clinical isolate HIV-1ROJO was obtained from a pediatric patient attending the AIDS Clinic at the University of Alabama at Birmingham. The laboratory-adapted HIV-1IIIB strain was propagated and tittered in fresh human PBMCs; pre-titered aliquots of HIV-1ROJO and Hiv-1IIIB were removed from the freezer (−80° C.) and thawed rapidly to room temperature in a biological safety cabinet immediately before use. Phytohemagglutinin (PHA-P) was obtained from Sigma (St. Louis, Mo.) and recombinant IL-2 was obtained from Amgen (San Francisco, Calif.).
Fresh human PBMCs were isolated from screened donors, seronegative for HIV and HBV. Leukophoresed blood was diluted 1:1 with Dulbecco's phosphate buffered saline (PBS), layered over 14 mL of Ficoll-Hypaque density gradient in a 50 mL centrifuge tube and then centrifuged for 30 minutes at 600×g. Banded PBMCs were aspirated from the resulting interface and subsequently washed 2× with PBS by low speed centrifugation. After the final wash, cells were enumerated by trypan blue exclusion and re-suspended at 1×10^7 cells/mL in RPMI 1640 supplemented with 15% Fetal Bovine Serum (FBS), 2 mM L-glutamine, 4 μg/mL PHA-P. The cells were allowed to incubate for 48-72 hours at 37° C. After incubation, PBMCs were centrifuged and reset in RPMI 1640 with 15% FBS, 2 mM L-glutamine, 100 U/ml penicillin, 100 μg/mL streptomycin, 10 μg/mL gentamycin, and 20 U/mL recombinant human IL-2. PBMCs were maintained in this medium at a concentration of 1-2×10^6 cells/mL with biweekly medium changes until used in the assay protocol.
For the standard PBMC assay, PHA-P stimulated cells from at least two normal donors were pooled, diluted in fresh medium to a final concentration of 1×10^6 cells/mL, and plated in the interior wells of 96 well round bottom microplate at 50 μL/well (5×10^4 cells/well). Test drug dilutions were prepared at a 2× concentration in microtiter tubes and […] of each concentration was placed in appropriate wells in a standard format. […] Wells with cells and virus alone were used for virus control. Separate plates were prepared identically without virus for drug cytotoxicity studies using an XTT assay system. The PBMC cultures were maintained for seven days following infection, at which time cell-free supernate samples were collected and assayed for reverse transcriptase activity as described below.
A microtiter based reverse transcriptase (RT) reaction was utilized. See Buckheit et al., AIDS Research and Human Retroviruses 7:295-302 (1991). Tritiated thymidine triphosphate (NEN) (TTP) was resuspended in distilled H2O at 5 Ci/ml. Poly rA and oligo dT were prepared as a stock solution which was kept at −20° C. The RT reaction buffer was prepared fresh on a daily basis and consists of 125 μl 1M EGTA, 125 μl dH2O, 110 μl 10% SDS, 50 μl 1M Tris (pH 7.4), 50 μl 1M DTT, and 40 μl 1M MgCL2. These three solutions were mixed together in a ratio of 2 parts TTP, 1 part poly rA:oligo dT, and 1 part reaction buffer. Ten microliters of this reactions mixture was placed at a round bottom microtiter plate and 15 μl of virus containing supernatant was added and mixed. […] Opti-Fluor-O (Packard) was added to each sample and incorporated radioactivity was quantified utilizing a Wallac 1450 MicroBeta Plus liquid scintillation counter.

[3] = Cytotoxicity measurement in uninfected PBMCs (MTS staining); assay type: cell-based; settings: human PBMCs without virus, seven days; read-out: TC50
Method: At assay termination the assay plates were stained with the soluble tetrazolium-based dye MTS (CellTiter Reagent, Promega) to determine cell viability and quantify compound toxicity. MTS is metabolized by the mitochondria enzymes of metabolically active cells to yield a soluble formazan product, allowing the rapid quantitative analysis cell viability and compound cytotoxicity. […] At termination of the assay, 20 μl of MTS reagent was added per well. The wells were incubated overnight for the HIV cytoprotection assay at 37° C. The incubation intervals were chosen based on empirically determined times for optimal dye reduction in each cell type. Adhesive plate sealers were used in place of the lids, the sealed plate was inverted several times to mix the soluble formazan product and the plate was read spectrophotometrically at 490 nm with a Molecular Devices Vmax plate reader.

[4] = target: T2, Tsg101 (Homo sapiens, UniProt Q99816); assay: Yeast two-hybrid filter lift assay for β-Gal activity, Tsg101 with p6gag constructs; assay type: cell-based; parameters: expressed in transfected cells; host or cells: Saccharomyces cerevisiae strain Y189; key to Interactions Between Tsg101 and p6gag (β-Gal activity): +: Positive β-Gal activity indicates that the p6gag wild type or mutant protein interacts with Tsg101; settings: for Interactions Between Tsg101 and p6gag (β-Gal activity): yeast strain Y189, activation domain-Tsg101 plus binding domain-p6gag construct, X-Gal filter lift
T2 sequence (Q99816 1-390): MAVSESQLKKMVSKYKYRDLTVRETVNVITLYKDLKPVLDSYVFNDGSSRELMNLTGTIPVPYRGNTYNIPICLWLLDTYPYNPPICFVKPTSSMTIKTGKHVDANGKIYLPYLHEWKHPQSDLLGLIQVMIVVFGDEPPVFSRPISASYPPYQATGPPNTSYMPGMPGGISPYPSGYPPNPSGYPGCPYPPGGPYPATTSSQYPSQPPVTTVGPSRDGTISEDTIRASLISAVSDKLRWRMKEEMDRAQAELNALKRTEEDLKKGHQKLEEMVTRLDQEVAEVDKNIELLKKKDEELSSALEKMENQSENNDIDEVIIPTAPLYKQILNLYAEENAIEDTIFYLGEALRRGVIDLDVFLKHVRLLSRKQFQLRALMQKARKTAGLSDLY
Source text: Yeast two-hybrid assays were utilized to determine the effect of amino acid substitution mutations in the PTAP (SEQ ID NO:1) motif of HIV p6gag on the interaction between Tsg101 and p6gag. To prepare a yeast two-hybrid activation domain-Tsg101 construct, a DNA fragment encompassing the full-length coding sequence for Tsg101 according to GenBank Accession No. U82130 was obtained by PCR from a human fetal brain cDNA library and cloned into the EcoRI/Pst1 sites of the activation domain parent plasmid GADpN2 (LEU2, CEN4, ARS1, ADH1p-SV40NLS-GAL4 (768-881)-MCS (multiple cloning site)-PGKlt, AmpR, ColE1_ori).
To prepare the yeast two-hybrid DNA binding domain-HIV1 p6gag construct, a DNA fragment corresponding to the HIV1 p6 peptide derived from the HIV1.NL43 strain GAG protein was obtained by PCR from the NL43 containing plasmid R9Δapa and was cloned into the EcoRI/Sal1 sites of the binding domain parent plasmid pGBT.Q. The sequence of the amplified insert is shown in SEQ ID NO:34.
The following amino acid substitution mutations were introduced by PCR into the HIV1 p6gag sequence in the yeast two-hybrid binding domain-HIV1 p6gag construct described above. The mutations were verified by DNA sequence analysis.
To test the effect of the mutations, yeast cells of the strain Y189 purchased from Clontech (ura3-52 his3*200 ade2-101 trp1-901 leu2-3,112 met gal4 gal80 URA3::GAL1p-lacZ) were co-transformed with the activation domain-Tsg101 construct and one of the binding domain-mutant p6gag constructs or the binding domain-wild type p6gag construct. Filter lift assays for β-Gal activity were conducted by lifting the transformed yeast colonies with filters, lysing the yeast cells by freezing and thawing, and contacting the lysed cells with X-Gal. […] All binding domain constructs were also tested for self-activation of β-Gal activity.

[5] = target: T2, Tsg101; assay: Two-hybrid liquid culture β-galactosidase assay; assay type: cell-based; parameters: expressed in transfected cells; settings: full length Tsg101, liquid culture, absorbance 575 nm
Method: The interactions between TSG101 and wild-type p6gag (WT) or the p6gag PTAP (SEQ ID NO:1) mutants were further quantitated by performing liquid culture β-galactosidase assays. Cultures were grown overnight in synthetic media (−Leu, −Trp, +glucose) in 96 well plates, normalized for optical density, and lysed by addition of 6× lysis/substrate solution in 6× Z-buffer (60 mM KCl, 6 mM MgSO4, 360 mM Na2HPO4, 240 mM NaH2PO4, 6 mg/ml CPRG, 0.12 U/ml lyticase, 0.075% NP-40). Cultures were incubated for 2 hr at 37° C., clarified by centrifugation, and the optical absorbance of each supernatant was measured (575 nm). Full length Tsg101 bound wild-type p6 in the two-hybrid liquid culture assay, resulting in high levels of β-galactosidase activity (>300-fold over background). […] Each of these point mutations also arrests HIV-1 budding at a late stage (Huang et al. 1995).

## p6(1-14): GAGp6 peptide containing the first 14 amino acid residues, synthesized chemically (LQSRPEPTAPPEES)
[1]
  inhibition of the interaction between GAGp6 and Tsg101: competitive inhibition

## Cc1cn([C@H]2C[C@H](N=[N+]=[N-])[C@@H](CO)O2)c(=O)[nH]c1=O [AZT, 3′-Azido-3′-deoxythymidine, reference compound]
[2]; Human immunodeficiency virus 1, PBMC, 168 h, PHA-P stimulated human PBMCs, MOI≈0.1, seven days, RT activity in supernate
  IC50: 8 nM
[2]; human PBMCs
  Comments (anti-HIV activity): Control; Highly Active
[3]
  CC50 at 7 days: > 1000 nM

## p6(E6G): HIV1 p6gag binding domain construct with E6G substitution outside the PTAP motif (LQSRPGPTAPPEESFRFGEETTTPSQKQEPIDKELYPLASLRSLFGSDPSSQ; not fully specified)
[4]; summary of Table II
  Tsg101-p6gag interaction (in words): did not result in the elimination of the Tsg101-p6gag interaction
[4]
  Interactions Between Tsg101 and p6gag (β-Gal activity): +

## p6(wt): wild type HIV1 p6gag (NL43 strain) as yeast two-hybrid DNA binding domain construct
[5]
  β-galactosidase activity: > 300 fold over background
[4]
  Interactions Between Tsg101 and p6gag (β-Gal activity): +
